Source: publication PMC2807882, “Conservation of DNA-binding specificity and oligomerisation properties within the p53 family”

Tests used:
Test in all cases: fluorescence anisotropy competition titration; 25 mM sodium phosphate (purification buffer pH 7.2), 225 mM NaCl, 10% v/v glycerol, 5 mM DTT, 0.2 mg/mL BSA, 22 C
Details in all cases: protein: recombinant; tags: N-terminal 6xHis-lipoyl-TEV tag, cleaved; chain copies: 4
Xlp53 = Xlp53 (Xenopus laevis, UniProt Q7T1D0 1-362)
ΔNp63α = target: T1, ΔNp63α (Homo sapiens, UniProt Q9H3D4-2 1-586)
T1 sequence: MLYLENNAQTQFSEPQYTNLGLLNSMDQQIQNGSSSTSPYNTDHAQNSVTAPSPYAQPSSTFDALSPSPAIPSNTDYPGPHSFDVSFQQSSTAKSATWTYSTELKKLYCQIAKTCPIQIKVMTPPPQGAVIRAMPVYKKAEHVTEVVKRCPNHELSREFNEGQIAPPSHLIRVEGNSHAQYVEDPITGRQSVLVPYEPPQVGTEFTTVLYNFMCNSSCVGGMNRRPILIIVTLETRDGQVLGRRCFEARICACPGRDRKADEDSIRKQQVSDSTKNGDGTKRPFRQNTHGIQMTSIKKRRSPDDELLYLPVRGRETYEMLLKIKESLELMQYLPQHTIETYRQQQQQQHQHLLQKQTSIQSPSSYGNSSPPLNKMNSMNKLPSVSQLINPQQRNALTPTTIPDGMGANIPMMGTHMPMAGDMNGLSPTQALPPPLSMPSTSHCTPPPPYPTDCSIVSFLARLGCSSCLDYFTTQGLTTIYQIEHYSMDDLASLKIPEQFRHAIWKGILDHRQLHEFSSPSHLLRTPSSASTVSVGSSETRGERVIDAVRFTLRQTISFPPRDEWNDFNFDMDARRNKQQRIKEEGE

ΔNp63γ = target: T2, ΔNp63γ (Homo sapiens, UniProt Q9H3D4-6 1-393)
T2 sequence: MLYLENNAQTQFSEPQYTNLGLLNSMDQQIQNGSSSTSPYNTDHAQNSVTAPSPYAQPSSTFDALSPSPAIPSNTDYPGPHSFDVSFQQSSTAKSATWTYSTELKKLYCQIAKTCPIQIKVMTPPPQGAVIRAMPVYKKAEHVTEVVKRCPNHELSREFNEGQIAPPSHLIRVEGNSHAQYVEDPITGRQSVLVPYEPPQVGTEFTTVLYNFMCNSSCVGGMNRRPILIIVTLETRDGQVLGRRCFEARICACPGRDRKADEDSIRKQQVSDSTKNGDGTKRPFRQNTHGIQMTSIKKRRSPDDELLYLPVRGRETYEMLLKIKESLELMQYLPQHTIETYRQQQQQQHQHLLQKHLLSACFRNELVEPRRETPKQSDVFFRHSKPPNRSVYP

p73CT = target: T3, p73CT (Homo sapiens, UniProt O15350 104-383)
T3 sequence: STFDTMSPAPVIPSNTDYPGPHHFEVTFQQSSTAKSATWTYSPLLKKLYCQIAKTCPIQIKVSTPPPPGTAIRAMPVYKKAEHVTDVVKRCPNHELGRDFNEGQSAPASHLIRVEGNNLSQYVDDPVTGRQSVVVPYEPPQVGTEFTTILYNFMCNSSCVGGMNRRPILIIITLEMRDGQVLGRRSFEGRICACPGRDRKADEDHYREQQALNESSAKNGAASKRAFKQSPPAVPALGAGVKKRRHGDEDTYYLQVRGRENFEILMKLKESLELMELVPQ

ΔNp73β = target: T4, ΔNp73β (Homo sapiens, UniProt O15350-9 1-450)
T4 sequence: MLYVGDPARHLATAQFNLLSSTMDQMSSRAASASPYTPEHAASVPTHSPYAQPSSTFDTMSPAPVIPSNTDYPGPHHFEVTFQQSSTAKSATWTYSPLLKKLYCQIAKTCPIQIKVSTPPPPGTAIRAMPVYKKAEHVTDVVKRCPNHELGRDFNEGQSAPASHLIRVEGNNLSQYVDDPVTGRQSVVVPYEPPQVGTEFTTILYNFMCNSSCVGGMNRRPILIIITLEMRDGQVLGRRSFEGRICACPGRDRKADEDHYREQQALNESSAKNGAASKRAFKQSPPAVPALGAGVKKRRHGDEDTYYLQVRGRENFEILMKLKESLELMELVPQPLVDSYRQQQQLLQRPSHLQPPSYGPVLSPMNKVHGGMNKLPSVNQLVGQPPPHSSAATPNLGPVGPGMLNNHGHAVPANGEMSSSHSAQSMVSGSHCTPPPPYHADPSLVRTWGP

ΔNp63β = target: T5, ΔNp63β (Homo sapiens, UniProt Q9H3D4-4 1-461)
T5 sequence: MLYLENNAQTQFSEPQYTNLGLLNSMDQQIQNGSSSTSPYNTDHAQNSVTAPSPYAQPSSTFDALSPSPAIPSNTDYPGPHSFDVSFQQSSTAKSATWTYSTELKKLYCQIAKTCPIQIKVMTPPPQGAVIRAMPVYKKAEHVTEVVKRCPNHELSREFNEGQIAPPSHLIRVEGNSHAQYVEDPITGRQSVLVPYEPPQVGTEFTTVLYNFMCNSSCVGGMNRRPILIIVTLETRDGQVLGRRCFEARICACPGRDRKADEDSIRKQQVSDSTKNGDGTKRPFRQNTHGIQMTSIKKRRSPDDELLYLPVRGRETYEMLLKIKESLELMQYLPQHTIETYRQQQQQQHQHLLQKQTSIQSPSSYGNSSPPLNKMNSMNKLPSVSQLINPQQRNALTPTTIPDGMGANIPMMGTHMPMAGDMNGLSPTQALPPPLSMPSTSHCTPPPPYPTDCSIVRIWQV

Mmp53 = Mmp53 (Mus musculus, UniProt P02340 1-390)
Chain of Mmp53 (P02340 whole entry): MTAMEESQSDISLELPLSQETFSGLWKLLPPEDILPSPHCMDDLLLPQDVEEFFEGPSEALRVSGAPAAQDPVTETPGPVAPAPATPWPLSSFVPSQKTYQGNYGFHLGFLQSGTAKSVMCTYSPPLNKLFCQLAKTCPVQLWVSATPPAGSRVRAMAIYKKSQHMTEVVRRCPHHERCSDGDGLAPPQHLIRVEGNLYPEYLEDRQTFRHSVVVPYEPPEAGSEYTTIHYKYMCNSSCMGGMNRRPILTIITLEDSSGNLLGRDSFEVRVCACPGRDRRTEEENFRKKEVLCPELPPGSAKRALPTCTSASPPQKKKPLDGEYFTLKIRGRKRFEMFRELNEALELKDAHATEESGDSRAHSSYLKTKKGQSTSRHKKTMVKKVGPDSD

Chain of Xlp53 (Q7T1D0 entry or part of it): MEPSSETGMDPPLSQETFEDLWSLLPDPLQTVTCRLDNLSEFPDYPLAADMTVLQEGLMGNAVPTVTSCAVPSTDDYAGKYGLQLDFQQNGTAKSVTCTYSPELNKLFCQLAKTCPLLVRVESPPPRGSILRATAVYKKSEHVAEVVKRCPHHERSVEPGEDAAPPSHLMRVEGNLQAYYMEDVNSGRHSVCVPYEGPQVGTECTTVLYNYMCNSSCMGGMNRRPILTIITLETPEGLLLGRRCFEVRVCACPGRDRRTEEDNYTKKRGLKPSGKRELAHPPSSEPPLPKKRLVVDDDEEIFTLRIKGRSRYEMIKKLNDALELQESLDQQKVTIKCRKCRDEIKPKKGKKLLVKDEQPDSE

B1: Ref competitor (dsDNA)
DNA 1: CGCGGACATGTCCGGACATGTCCCGC
DNA 2: GCGGGACATGTCCGGACATGTCCGCG
Kd (Xlp53): 0.0832 µM | Kd (ΔNp63α): 0.0617 µM | Kd (ΔNp63γ): 0.0331 µM | Kd (p73CT): 0.148 µM | Kd (ΔNp73β): 0.024 µM | Kd (ΔNp63β): 0.0355 µM | Kd (Mmp53): 0.132 µM
